In US20110124576A1 (NOVOZYMES A S, published 2011):

Legend:
[1] = target: T1, transferrin receptor on human erythroleukemic K562 cells (human, UniProt P02786 1-760); experiment: specific 55Fe uptake from labelled diferric transferrin into K562 cells, 25 min at 37 C, 12.5-2000 nM; unspecific uptake (hundredfold unlabelled transferrin) subtracted; mean ± S.E.M. of three experiments
T1 construct: whole, on cells; also called TfR
Description: Iron uptake from labelled diferric transferrins was performed as follows. K562 erythroleukemic cells, cultured in RPMI cell culture medium under standard conditions (bicarbonate-buffered, 5% CO₂, antibiotics, 10% foetal calf serum) were washed with serum-free medium containing HEPES-buffer and 1 mg/ml of bovine serum albumin and used at a concentration of 10 million cells/ml in this medium.
The reaction was started by the addition of 50 μl of cell suspension.
After 25 min at 37° C. the reaction was stopped by immersion into an ice-bath, three aliquots of 30 μL of cell suspension were transferred to new tubes and the cells were centrifuged in the cold and again after addition of an oil layer of diethylphtalate/dibutylphthalate. The supernatant was removed, the cell pellet transferred into a counter vial and lysed with 0.5 M KOH+1% Triton X-100. The lysates were neutralized with 1M HCl after overnight lysis, mixed with Readysolv scintillation cocktail and counted in the Packard Liquid Scintillation Counter.

[2] = target: T1, transferrin receptor on human …; experiment: cell-based or functional assay
[3] = target: T1, transferrin receptor on human …; experiment: cell-based or functional assay; remark: listed apart in the source

T1 sequence (P02786 whole entry): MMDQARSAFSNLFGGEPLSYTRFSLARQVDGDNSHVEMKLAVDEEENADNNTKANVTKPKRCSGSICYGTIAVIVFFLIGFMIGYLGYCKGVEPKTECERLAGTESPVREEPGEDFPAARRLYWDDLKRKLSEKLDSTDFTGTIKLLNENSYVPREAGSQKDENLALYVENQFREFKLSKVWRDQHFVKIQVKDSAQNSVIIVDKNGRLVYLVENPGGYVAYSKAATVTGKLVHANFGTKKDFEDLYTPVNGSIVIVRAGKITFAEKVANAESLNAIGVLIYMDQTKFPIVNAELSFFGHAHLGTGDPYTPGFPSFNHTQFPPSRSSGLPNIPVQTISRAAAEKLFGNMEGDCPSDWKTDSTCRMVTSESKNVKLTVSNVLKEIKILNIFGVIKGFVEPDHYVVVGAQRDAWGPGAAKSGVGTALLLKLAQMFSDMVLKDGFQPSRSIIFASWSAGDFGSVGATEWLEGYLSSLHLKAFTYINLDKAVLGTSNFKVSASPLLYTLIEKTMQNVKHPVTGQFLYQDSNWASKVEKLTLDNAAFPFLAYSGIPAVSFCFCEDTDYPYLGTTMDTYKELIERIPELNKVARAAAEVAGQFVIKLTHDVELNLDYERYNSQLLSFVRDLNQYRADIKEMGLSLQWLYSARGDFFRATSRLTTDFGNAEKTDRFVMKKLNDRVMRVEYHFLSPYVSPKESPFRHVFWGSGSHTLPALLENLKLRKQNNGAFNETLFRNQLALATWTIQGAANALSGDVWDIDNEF

Row | Binder | Kd [1] [nM] | Specific iron uptake Bmax [2] | specific iron uptake into K562 cells [3]
1 | recombinant human transferrin (S415A, T613A) (ligand, Secreted from S. cerevisiae; 55Fe-loaded (diferric) in the K562 assay; also called Deltaferrin; rTf) VPDKTVRWCAVSEHEATKCQSFRDHMKSVIPSDGPSVACVKKASYLDCIRAIAANEADAVTLDAGLVYDAYLAPNNLKPVVAEFYGSKEDPQTFYYAVAVVKKDSGFQMNQLRGKKSCHTGLGRSAGWNIPIGLLYCDLPEPRKPLEKAVANFFSGSCAPCADGTDFPQLCQLCPGCGCSTLNQYFGYSGAFKCLKDGAGDVAFVKHSTIFENLANKADRDQYELLCLDNTRKPVDEYKDCHLAQVPSHTVVARSMGGKEDLIWELLNQAQEHFGKDKSKEFQLFSSPHGKDLLFKDSAHGFLKVPPRMDAKMYLGYEYVTAIRNLREGTCPEAPTDECKPVKWCALSHHERLKCDEWSVNSVGKIECVSAETTEDCIAKIMNGEADAMSLDGGFVYIAGKCGLVPVLAENYNKADNCEDTPEAGYFAVAVVKKSASDLTWDNLKGKKSCHTAVGRTAGWNIPMGLLYNKINHCRFDEFFSEGCAPGSKKDSSLCKLCMGSGLNLCEPNNKEGYYGYTGAFRCLVEKGDVAFVKHQTVPQNTGGKNPDPWAKNLNEKDYELLCLDGTRKPVEEYANCHLARAPNHAVVTRKDKEACVHKILRQQQHLFGSNVADCSGNFCLFRSETKDLLFRDDTVCLAKLHDRNTYEKYLGEEYVKAVGNLRKCSTSSLLEACTFRRP | 130 | 2830 fmol 55Fe/10^6 cells x 25 min | 
2 | recombinant thiotransferrin (S28C, S415A, T613A) (ligand, free thiol at Cys 28, Iron-loaded in SPR, 55Fe-loaded in the K562 assay; also called from Strain 1 [pDB3767]) VPDKTVRWCAVSEHEATKCQSFRDHMKCVIPSDGPSVACVKKASYLDCIRAIAANEADAVTLDAGLVYDAYLAPNNLKPVVAEFYGSKEDPQTFYYAVAVVKKDSGFQMNQLRGKKSCHTGLGRSAGWNIPIGLLYCDLPEPRKPLEKAVANFFSGSCAPCADGTDFPQLCQLCPGCGCSTLNQYFGYSGAFKCLKDGAGDVAFVKHSTIFENLANKADRDQYELLCLDNTRKPVDEYKDCHLAQVPSHTVVARSMGGKEDLIWELLNQAQEHFGKDKSKEFQLFSSPHGKDLLFKDSAHGFLKVPPRMDAKMYLGYEYVTAIRNLREGTCPEAPTDECKPVKWCALSHHERLKCDEWSVNSVGKIECVSAETTEDCIAKIMNGEADAMSLDGGFVYIAGKCGLVPVLAENYNKADNCEDTPEAGYFAVAVVKKSASDLTWDNLKGKKSCHTAVGRTAGWNIPMGLLYNKINHCRFDEFFSEGCAPGSKKDSSLCKLCMGSGLNLCEPNNKEGYYGYTGAFRCLVEKGDVAFVKHQTVPQNTGGKNPDPWAKNLNEKDYELLCLDGTRKPVEEYANCHLARAPNHAVVTRKDKEACVHKILRQQQHLFGSNVADCSGNFCLFRSETKDLLFRDDTVCLAKLHDRNTYEKYLGEEYVKAVGNLRKCSTSSLLEACTFRRP | 209 | 3020 fmol 55Fe/10^6 cells x 25 min | > 5 % of the level for the transferrin (S415A, T613A) control
3 | recombinant thiotransferrin (S415C, T613A) (ligand, free thiol at Cys 415, Iron-loaded in SPR, 55Fe-loaded in the K562 assay; also called from Strain 1 [pDB3773]) VPDKTVRWCAVSEHEATKCQSFRDHMKSVIPSDGPSVACVKKASYLDCIRAIAANEADAVTLDAGLVYDAYLAPNNLKPVVAEFYGSKEDPQTFYYAVAVVKKDSGFQMNQLRGKKSCHTGLGRSAGWNIPIGLLYCDLPEPRKPLEKAVANFFSGSCAPCADGTDFPQLCQLCPGCGCSTLNQYFGYSGAFKCLKDGAGDVAFVKHSTIFENLANKADRDQYELLCLDNTRKPVDEYKDCHLAQVPSHTVVARSMGGKEDLIWELLNQAQEHFGKDKSKEFQLFSSPHGKDLLFKDSAHGFLKVPPRMDAKMYLGYEYVTAIRNLREGTCPEAPTDECKPVKWCALSHHERLKCDEWSVNSVGKIECVSAETTEDCIAKIMNGEADAMSLDGGFVYIAGKCGLVPVLAENYNKCDNCEDTPEAGYFAVAVVKKSASDLTWDNLKGKKSCHTAVGRTAGWNIPMGLLYNKINHCRFDEFFSEGCAPGSKKDSSLCKLCMGSGLNLCEPNNKEGYYGYTGAFRCLVEKGDVAFVKHQTVPQNTGGKNPDPWAKNLNEKDYELLCLDGTRKPVEEYANCHLARAPNHAVVTRKDKEACVHKILRQQQHLFGSNVADCSGNFCLFRSETKDLLFRDDTVCLAKLHDRNTYEKYLGEEYVKAVGNLRKCSTSSLLEACTFRRP | 203 | 2360 fmol 55Fe/10^6 cells x 25 min | > 5 % of the level for the transferrin (S415A, T613A) control
4 | fluorescein conjugated thiotransferrin (S415C, T613A) (ligand, fluorescein-5-maleimide conjugated to the free thiol of Cys 415, Iron-loaded in SPR, 55Fe-loaded in the K562 assay; also called Fluorescein conjugated recombinant thiotransferrin (S415C, T613A)) VPDKTVRWCAVSEHEATKCQSFRDHMKSVIPSDGPSVACVKKASYLDCIRAIAANEADAVTLDAGLVYDAYLAPNNLKPVVAEFYGSKEDPQTFYYAVAVVKKDSGFQMNQLRGKKSCHTGLGRSAGWNIPIGLLYCDLPEPRKPLEKAVANFFSGSCAPCADGTDFPQLCQLCPGCGCSTLNQYFGYSGAFKCLKDGAGDVAFVKHSTIFENLANKADRDQYELLCLDNTRKPVDEYKDCHLAQVPSHTVVARSMGGKEDLIWELLNQAQEHFGKDKSKEFQLFSSPHGKDLLFKDSAHGFLKVPPRMDAKMYLGYEYVTAIRNLREGTCPEAPTDECKPVKWCALSHHERLKCDEWSVNSVGKIECVSAETTEDCIAKIMNGEADAMSLDGGFVYIAGKCGLVPVLAENYNKCDNCEDTPEAGYFAVAVVKKSASDLTWDNLKGKKSCHTAVGRTAGWNIPMGLLYNKINHCRFDEFFSEGCAPGSKKDSSLCKLCMGSGLNLCEPNNKEGYYGYTGAFRCLVEKGDVAFVKHQTVPQNTGGKNPDPWAKNLNEKDYELLCLDGTRKPVEEYANCHLARAPNHAVVTRKDKEACVHKILRQQQHLFGSNVADCSGNFCLFRSETKDLLFRDDTVCLAKLHDRNTYEKYLGEEYVKAVGNLRKCSTSSLLEACTFRRP | 189 | 3250 fmol 55Fe/10^6 cells x 25 min | > 5 % of the level for the transferrin (S415A, T613A) control
5 | fluorescein conjugated thiotransferrin (S28C, S415A, T613A) (ligand, fluorescein-5-maleimide conjugated to the free thiol of Cys 28, Iron-loaded in SPR, 55Fe-loaded in the K562 assay; also called Fluorescein conjugated recombinant thiotransferrin (S28C, S415A, T613A)) VPDKTVRWCAVSEHEATKCQSFRDHMKCVIPSDGPSVACVKKASYLDCIRAIAANEADAVTLDAGLVYDAYLAPNNLKPVVAEFYGSKEDPQTFYYAVAVVKKDSGFQMNQLRGKKSCHTGLGRSAGWNIPIGLLYCDLPEPRKPLEKAVANFFSGSCAPCADGTDFPQLCQLCPGCGCSTLNQYFGYSGAFKCLKDGAGDVAFVKHSTIFENLANKADRDQYELLCLDNTRKPVDEYKDCHLAQVPSHTVVARSMGGKEDLIWELLNQAQEHFGKDKSKEFQLFSSPHGKDLLFKDSAHGFLKVPPRMDAKMYLGYEYVTAIRNLREGTCPEAPTDECKPVKWCALSHHERLKCDEWSVNSVGKIECVSAETTEDCIAKIMNGEADAMSLDGGFVYIAGKCGLVPVLAENYNKADNCEDTPEAGYFAVAVVKKSASDLTWDNLKGKKSCHTAVGRTAGWNIPMGLLYNKINHCRFDEFFSEGCAPGSKKDSSLCKLCMGSGLNLCEPNNKEGYYGYTGAFRCLVEKGDVAFVKHQTVPQNTGGKNPDPWAKNLNEKDYELLCLDGTRKPVEEYANCHLARAPNHAVVTRKDKEACVHKILRQQQHLFGSNVADCSGNFCLFRSETKDLLFRDDTVCLAKLHDRNTYEKYLGEEYVKAVGNLRKCSTSSLLEACTFRRP | 154 | 2430 fmol 55Fe/10^6 cells x 25 min | > 5 % of the level for the transferrin (S415A, T613A) control
